Reference: US20250339531A1, “DUX4 POLYPEPTIDES AND NUCLEIC ACIDS FOR TREATING INFLAMMATORY AND AUTOIMMUNE CONDITIONS” (Fred Hutchinson Cancer Center, priority 2021, published 2025)

Test system: proteins that co-immunoprecipitated with DUX4-CTD constructs expressed in MB135 myoblasts
Test: LC-MS of proteins co-immunoprecipitated with DUX4-CTD (Table 1) and western validation
Type: binding, human
Design: key to 4. mL1dL2 + Dox + IFNG / 4. + IFNG mix / 4. longCTD + Dox + IFNG / 3. + IFNg + Dox longCTD / 3. + Dox longCTD / 3. + IFNG longCTD: peptide-spectrum matches (PSMs) per protein
Details: kind of count not given; for 4. + IFNG mix: LC-MS value per protein co-immunoprecipitated from MB135 myoblasts, + IFNG mix sample (no Dox); for 4. mL1dL2 + Dox + IFNG: LC-MS value per protein co-immunoprecipitated with DUX4-CTD construct mL1dL2 in MB135 myoblasts
From the text: As an unbiased method to identify proteins that interact with the C-terminal region of DUX4, liquid chromatography mass spectroscopy (LC-MS) was used to identify proteins that co-immunoprecipitated with DUX4-CTD constructs expressed in MB135 myoblasts. In the first experiment, MB135iDUX4-CTD cells were used, either untreated, treated with doxycycline alone, or with both doxycycline and IFNG. In the second experiment, MB135iDUX4-CTD and MB135iDUX4mL1dL2 cells were used, both treated with doxycycline and IFNG, compared to these two cell lines untreated and combined as a control. Proteins with a minimum of 2 peptide spectrum matches (PSMs) in at least one sample that were identified in both experiments were assigned to one of ten categories (see Methods) to separate candidate interactors from other categories that might be co-purified because of obligate interactions (e.g., proteasome or ribosome) or might be less likely to be physiologically relevant (e.g., cytoskeletal proteins). Candidate interactors were then ranked based on the total PSMs for that protein across all samples.
Centrifugation at 2500 rcf at 4° C. for 5 min pelleted the nuclei, supernatant was discarded, and nuclei resuspended in 1 mL IP buffer pH 7.4 (25 mM Tris-HCl pH 7.5, 175 mM NaCl, 1 mM EDTA, 0.2% NP-40, 5% glycerol) and incubated for 1 hour at 4° C. with rotation then spun at 21000 rcf for 10 minutes at 4° C. to pellet insoluble debris. Protein concentration was determined using the Pierce BCA Protein Assay Kit (ThermoFisher, 23225). An equivalent amount of protein per sample was pre-cleared with Dynabeads Protein G (Invitrogen) bound to mouse IgG (Abcam #131368) for 1 hour at 4° C. with rotation. FLAG-tagged constructs were then immunoprecipitated with Dynabeads Protein G beads coupled to mouse anti-FLAG M2 mAb (Sigma F3165) for 3 hours at 4° C. with rotation. Beads were washed 3× with 1 mL IP buffer and eluted by adding 2× NuPage LDS Sample Buffer (Thermo Fisher, diluted from 4× with PBS) to the beads and heating for 10 minutes at 70° C.
For LC-MS, anti-FLAG immunoprecipitation was performed with beads cross-linked to the anti-FLAG antibody and the proteins competitively eluted with FLAG peptide. Eluted protein samples were electrophoresed into a NuPage 4-12% Bis-Tris gel, excised, and processed by the Fred Hutchinson Cancer Research Center Proteomics Core. Samples were reduced, alkylated, digested with trypsin, desalted, and run on the Orbitrap Eclipse Tribid Mass Spectrometer (Thermo Fisher). Proteomics data were analyzed using Proteome Discoverer 2.4 against a Uniprot human database that included common contaminants using Sequest HT and Percolator for scoring. […] Proteins that were identified in at least one sample from both independent experiments with at least 2 PSMs in one sample were assigned to one of ten categories: 1, candidates; 2, cytoskeletal associated; 3, cytoskeletal; 4, ribosome/translation associated; 5, proteasome associated; 6, membrane or extracellular; ER, golgi, or vesicle associated; 8, lipid metabolism; 9, chaperones; 10, nuclear import or nuclear membrane associated. The proteins in category 1 were further investigated for interactions with DUX4.

B1: LMNA (protein)
chain: METPSQRRATRSGAQASSTPLSPTRITRLQEKEDLQELNDRLAVYIDRVRSLETENAGLRLRITESEEVVSREVSGIKAAYEAELGDARKTLDSVAKERARLQLELSKVREEFKELKARNTKKEGDLIAAQARLKDLEALLNSKEAALSTALSEKRTLEGELHDLRGQVAKLEAALGEAKKQLQDEMLRRVDAENRLQTMKEELDFQKNIYSEELRETKRRHETRLVEIDNGKQREFESRLADALQELRAQHEDQVEQYKKELEKTYSAKLDNARQSAERNSNLVGAAHEELQQSRIRIDSLSAQLSQLQKQLAAKEAKLRDLEDSLARERDTSRRLLAEKEREMAEMRARMQQQLDEYQELLDIKLALDMEIHAYRKLLEGEEERLRLSPSPTSQRSRGRASSHSSQTQGGGSVTKKRKLESTESRSSFSQHARTSGRVAVEEVDEEGKFVRLRNKSNEDQSMGNWQIKRQNGDDPLLTYRFPPKFTLKAGQVVTIWAAGAGATHSPPTDLVWKAQNTWGCGNSLRTALINSTGEEVAMRKLVRSVTVVEDDEDEDGDDLLHHHHGSHCSSSGDPAEYNLRSRTVLCGTCGQPADKASASGSGAQVGGPISSGSSASSVTVTRSYRSVGGSGGGSFGDNLVTRSY
- 4. + IFNG mix: 4
- 4. mL1dL2 + Dox + IFNG: 8

B2: CFL1 (protein)
chain: MVSPGHGHLRERKELTPHSTNPAAARIWDATYSDGYVRPASGVAVSDGVIKVFNDMKVRKSSTPEEVKKRKKAVLFCLSEDKKNIILEEGKEILVGDVGQTVDDPYATFVKMLPDKDCRYALYDATYETKESKKEDLVFIFWAPESAPLKSKMIYASSKDAIKKKLTGIKHELQANCYEEVKDRCTLAEKLGGSAVISLEGKPL
- 4. + IFNG mix: 1
- 4. mL1dL2 + Dox + IFNG: 4

B3: WDR1 (protein)
chain: MPYEIKKVFASLPQVERGVSKIIGGDPKGNNFLYTNGKCVILRNIDNPALADIYTEHAHQVVVAKYAPSGFYIASGDVSGKLRIWDTTQKEHLLKYEYQPFAGKIKDIAWTEDSKRIAVVGEGREKFGAVFLWDSGSSVGEITGHNKVINSVDIKQSRPYRLATGSDDNCAAFFEGPPFKFKFTIGDHSRFVNCVRFSPDGNRFATASADGQIYIYDGKTGEKVCALGGSKAHDGGIYAISWSPDSTHLLSASGDKTSKIWDVSVNSVVSTFPMGSTVLDQQLGCLWQKDHLLSVSLSGYINYLDRNNPSKPLHVIKGHSKSIQCLTVHKNGGKSYIYSGSHDGHINYWDSETGENDSFAGKGHTNQVSRMTVDESGQLISCSMDDTVRYTSLMLRDYSGQGVVKLDVQPKCVAVGPGGYAVVVCIGQIVLLKDQRKCFSIDNPGYEPEVVAVHPGGDTVAIGGVDGNVRLYSILGTTLKDEGKLLEAKGPVTDVAYSHDGAFLAVCDASKVVTVFSVADGYSENNVFYGHHAKIVCLAWSPDNEHFASGGMDMMVYVWTLSDPETRVKIQDAHRLHHVSSLAWLDEHTLVTTSHDASVKEWTITY
- 4. mL1dL2 + Dox + IFNG: 2

B4: TUBB (protein)
chain: MREIVHIQAGQCGNQIGAKFWEVISDEHGIDPTGTYHGDSDLQLDRISVYYNEATGGKYVPRAILVDLEPGTMDSVRSGPFGQIFRPDNFVFGQSGAGNNWAKGHYTEGAELVDSVLDVVRKEAESCDCLQGFQLTHSLGGGTGSGMGTLLISKIREEYPDRIMNTFSVVPSPKVSDTVVEPYNATLSVHQLVENTDETYCIDNEALYDICFRTLKLTTPTYGDLNHLVSATMSGVTTCLRFPGQLNADLRKLAVNMVPFPRLHFFMPGFAPLTSRGSQQYRALTVPELTQQVFDAKNMMAACDPRHGRYLTVAAVFRGRMSMKEVDEQMLNVQNKNSSYFVEWIPNNVKTAVCDIPPRGLKMAVTFIGNSTAIQELFKRISEQFTAMFRRKAFLHWYTGEGMDEMEFTEAESNMNDLVSEYQQYQDATAEEEEDFGEEAEEEA
- 4. + IFNG mix: 19
- 4. mL1dL2 + Dox + IFNG: 56

B5: TUBB6 (protein)
chain: MREIVHIQAGQCGNQIGTKFWEVISDEHGIDPAGGYVGDSALQLERINVYYNESSSQKYVPRAALVDLEPGTMDSVRSGPFGQLFRPDNFIFGQTGAGNNWAKGHYTEGAELVDAVLDVVRKECEHCDCLQGFQLTHSLGGGTGSGMGTLLISKIREEFPDRIMNTFSVMPSPKVSDTVVEPYNATLSVHQLVENTDETYCIDNEALYDICFRTLKLTTPTYGDLNHLVSATMSGVTTSLRFPGQLNADLRKLAVNMVPFPRLHFFMPGFAPLTSRGSQQYRALTVPELTQQMFDARNMMAACDPRHGRYLTVATVFRGPMSMKEVDEQMLAIQSKNSSYFVEWIPNNVKVAVCDIPPRGLKMASTFIGNSTAIQELFKRISEQFSAMFRRKAFLHWFTGEGMDEMEFTEAESNMNDLVSEYQQYQDATANDGEEAFEDEEEEIDG
- 4. mL1dL2 + Dox + IFNG: 23

B6: MYL12A (protein)
chain: MDLTTTMSSKRTKTKTKKRPQRATSNVFAMFDQSQIQEFKEAFNMIDQNRDGFIDKEDLHDMLASLGKNPTDEYLDAMMNEAPGPINFTMFLTMFGEKLNGTDPEDVIRNAFACFDEEATGTIQEDYLRELLTTMGDRFTDEEVDELYREAPIDKKGNFNYIEFTRILKHGAKDKDD
- 4. + IFNG mix: 9
- 4. mL1dL2 + Dox + IFNG: 30

B7: KRT71 (protein)
chain: MSRQFTCKSGAAAKGGFSGCSAVLSGGSSSSFRAGSKGLSGGFGSRSLYSLGGVRSLNVASGSGKSGGYGFGRGRASGFAGSMFGSVALGPVCPTVCPPGGIHQVTVNESLLAPLNVELDPEIQKVRAQEREQIKALNNKFASFIDKVRFLEQQNQVLETKWELLQQLDLNNCKNNLEPILEGYISNLRKQLETLSGDRVRLDSELRNVRDVVEDYKKRYEEEINKRTAAENEFVLLKKDVDAAYANKVELQAKVESMDQEIKFFRCLFEAEITQIQSHISDMSVILSMDNNRNLDLDSIIDEVRTQYEEIALKSKAEAEALYQTKFQELQLAAGRHGDDLKNTKNEISELTRLIQRIRSEIENVKKQASNLETAIADAEQRGDNALKDARAKLDELEGALHQAKEELARMLREYQELMSLKLALDMEIATYRKLLESEECRMSGEFPSPVSISIISSTSGGSVYGFRPSMVSGGYVANSSNCISGVCSVRGGEGRSRGSANDYKDTLGKGSSLSAPSKKTSR
- 4. mL1dL2 + Dox + IFNG: 21
